This note sets out measurements from IntAct's records for PubMed 35512704.

First the molecules themselves.
B1: Mothers against decapentaplegic homolog 4 (Homo sapiens), Q13485 (parent)
chain: MDNMSITNTPTSNDACLSIVHSLMCHRQGGESETFAKRAIESLVKKLKEKKDELDSLITAITTNGAHPSKCVTIQRTLDGRLQVAGRKGFPHVIYARLWRWPDLHKNELKHVKYCQYAFDLKCDSVCVNPYHYERVVSPGIDLSGLTLQSNAPSSMMVKDEYVHDFEGQPSLSTEGHSIQTIQHPPSNRASTETYSTPALLAPSESNATSTANFPNIPVASTSQPASILGGSHSEGLLQIASGPQPGQQQNGFTGQPATYHHNSTTTWTGSRTAPYTPNLPHHQNGHLQHHPPMPPHPGHYWPVHNELAFQPPISNHPAPEYWCSIAYFEMDVQVGETFKVPSSCPIVTVDGYVDPSGGDRFCLGQLSNVHRTEAIERARLHIGKGVQLECKGEGDVWVRCLSDHAVFVQSYYLDREAGRAPGDAVHKIYPSAYIKVFDLRQCHRQMQQQAATAQAAAAAQAAAVAGNIPGPGSVGGIAPAISLSAAAGIGVDDLRRLCILRMSFVKGWGPDYPRQSIKETPCWIEIHLHRALQLLDEVLHTMPIADPQPLD
partner: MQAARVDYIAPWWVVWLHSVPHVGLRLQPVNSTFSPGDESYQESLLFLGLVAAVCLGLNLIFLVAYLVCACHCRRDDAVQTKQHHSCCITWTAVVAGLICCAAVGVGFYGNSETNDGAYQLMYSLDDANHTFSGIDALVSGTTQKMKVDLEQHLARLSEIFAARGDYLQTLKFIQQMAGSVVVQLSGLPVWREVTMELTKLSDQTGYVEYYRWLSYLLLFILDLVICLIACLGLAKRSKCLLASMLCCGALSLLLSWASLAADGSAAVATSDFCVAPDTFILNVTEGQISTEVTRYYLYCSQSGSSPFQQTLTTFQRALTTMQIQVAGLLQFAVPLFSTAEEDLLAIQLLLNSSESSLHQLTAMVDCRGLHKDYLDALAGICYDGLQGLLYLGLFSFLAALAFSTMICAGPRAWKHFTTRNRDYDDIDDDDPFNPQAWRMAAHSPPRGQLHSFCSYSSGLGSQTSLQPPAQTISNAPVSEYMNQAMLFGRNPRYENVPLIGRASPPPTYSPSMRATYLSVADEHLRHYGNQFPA
B2: Mothers against decapentaplegic homolog 4 (Homo sapiens), Q13485 (parent)
chain: B1 chain
partner: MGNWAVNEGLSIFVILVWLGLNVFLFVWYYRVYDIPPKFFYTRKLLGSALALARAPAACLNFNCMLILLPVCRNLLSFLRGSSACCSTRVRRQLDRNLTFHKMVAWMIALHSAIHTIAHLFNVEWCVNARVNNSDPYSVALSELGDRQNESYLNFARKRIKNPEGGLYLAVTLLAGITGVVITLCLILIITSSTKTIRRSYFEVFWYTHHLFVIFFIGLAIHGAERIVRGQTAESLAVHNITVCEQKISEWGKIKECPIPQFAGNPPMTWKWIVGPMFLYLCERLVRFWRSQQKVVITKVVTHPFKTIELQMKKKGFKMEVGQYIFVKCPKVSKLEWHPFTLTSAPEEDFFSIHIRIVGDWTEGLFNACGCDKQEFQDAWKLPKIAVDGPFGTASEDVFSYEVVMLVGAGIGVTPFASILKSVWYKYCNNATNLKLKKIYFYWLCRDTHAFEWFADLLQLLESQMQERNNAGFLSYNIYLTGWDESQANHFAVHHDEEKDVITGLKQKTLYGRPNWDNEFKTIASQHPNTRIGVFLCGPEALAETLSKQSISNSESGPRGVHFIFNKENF
B3: Speckle-type POZ protein (Homo sapiens), O43791 (parent)
chain: MSRVPSPPPPAEMSSGPVAESWCYTQIKVVKFSYMWTINNFSFCREEMGEVIKSSTFSSGANDKLKWCLRVNPKGLDEESKDYLSLYLLLVSCPKSEVRAKFKFSILNAKGEETKAMESQRAYRFVQGKDWGFKKFIRRDFLLDEANGLLPDDKLTLFCEVSVVQDSVNISGQNTMNMVKVPECRLADELGGLWENSRFTDCCLCVAGQEFQAHKAILAARSPVFSAMFEHEMEESKKNRVEINDVEPEVFKEMMCFIYTGKAPNLDKMADDLLAAADKYALERLKVMCEDALCSNLSVENAAEILILADLHSADQLKTQAVDFINYHASDVLETSGWKSMVVSHPHLVAEAYRSLASAQCPFLGPPRKRLKQS
partner: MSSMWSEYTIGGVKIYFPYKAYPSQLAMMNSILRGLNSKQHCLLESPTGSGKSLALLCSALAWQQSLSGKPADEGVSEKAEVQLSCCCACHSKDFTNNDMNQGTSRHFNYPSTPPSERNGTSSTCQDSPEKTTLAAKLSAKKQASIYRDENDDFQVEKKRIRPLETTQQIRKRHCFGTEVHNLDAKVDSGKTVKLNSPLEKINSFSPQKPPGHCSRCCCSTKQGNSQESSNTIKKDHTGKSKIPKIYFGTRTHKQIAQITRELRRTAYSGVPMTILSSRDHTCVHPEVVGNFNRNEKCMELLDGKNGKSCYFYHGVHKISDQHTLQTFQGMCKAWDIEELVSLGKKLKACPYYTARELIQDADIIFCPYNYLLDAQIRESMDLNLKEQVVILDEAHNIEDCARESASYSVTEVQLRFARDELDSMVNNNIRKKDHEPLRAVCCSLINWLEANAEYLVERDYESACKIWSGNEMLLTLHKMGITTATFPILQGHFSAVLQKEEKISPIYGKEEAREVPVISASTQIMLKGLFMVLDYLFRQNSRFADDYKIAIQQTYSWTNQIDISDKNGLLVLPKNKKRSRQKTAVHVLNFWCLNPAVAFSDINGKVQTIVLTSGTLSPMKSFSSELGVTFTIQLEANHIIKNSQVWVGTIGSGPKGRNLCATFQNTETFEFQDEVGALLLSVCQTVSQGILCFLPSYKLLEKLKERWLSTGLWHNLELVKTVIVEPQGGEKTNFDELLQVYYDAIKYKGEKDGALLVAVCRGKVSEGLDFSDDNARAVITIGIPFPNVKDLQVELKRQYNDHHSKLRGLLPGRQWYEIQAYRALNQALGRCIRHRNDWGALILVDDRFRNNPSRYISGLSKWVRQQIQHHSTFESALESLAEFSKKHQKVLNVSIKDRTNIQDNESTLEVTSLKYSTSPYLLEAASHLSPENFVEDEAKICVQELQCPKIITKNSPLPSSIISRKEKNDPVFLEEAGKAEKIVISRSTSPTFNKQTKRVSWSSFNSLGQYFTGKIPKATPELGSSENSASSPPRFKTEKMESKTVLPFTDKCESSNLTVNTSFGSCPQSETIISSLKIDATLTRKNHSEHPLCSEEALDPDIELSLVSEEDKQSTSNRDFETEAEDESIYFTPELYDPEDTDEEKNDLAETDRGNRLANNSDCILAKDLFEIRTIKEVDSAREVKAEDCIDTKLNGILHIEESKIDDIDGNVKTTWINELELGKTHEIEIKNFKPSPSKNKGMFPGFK

The variants in the first assay derive from B1. The conditions noted are these: with ttyh2_human TTYH2, Q9BSA4.
As to G386D, the “effect of a mutation on the interaction” value is recorded as “with no effect”.

The variants in a further assay derive from B2. The settings on record: with cy24b_human CYBB.
As for R361H, the “effect of a mutation on the interaction” value was “with no effect”.

The variants in the next assay derive from B3. The settings on record: with fancj_human BRIP1, Q9BX63.
As to MSRVPSPPPPAEMSSGPVAESWCYTQIKVVKFSYMWTINNFSFCREEMGEVIKSSTFSSGANDKLKWCLRVNPKGLDEESKDYLSLYLLLVSCPKSEVRAKFKFSILNAKGEETKAMESQRAYRFVQGKDWGLKKFIRRDFLLDEANGLLPDDKLTLFCEVSVVQDSVNISGQNTMNMVKVPECRLADELGGLWENSRFTDCCLCVAGQEFQAHKAILAARSPVFSAMFEHEMEESKKNRVEINDVEPEVFKEMMCFIYTGKAPNLDKMADDLLAAADKYALERLKVMCEDALCSNLSVENAAEILILADLHSADQLKTQAVDFINYHASDVLETSGWKSMVVSHPHLVAEAYRSLASAQCPFLGPPRKRLKQS [F133L], the “effect of a mutation on the interaction” value is listed as “with no effect”.

Variants of B3 are the subject of the next assay. The settings on record: with fancj_human BRIP1, Q9BX63. The source holds these as a separate data set.
In the case of MSRVPSPPPPAEMSSGPVAESWCYTQIKVVKFSYMWTINNFSFCREEMGEVIKSSTFSSGANDKLKWCLRVNPKGLDEESKDYLSLYLLLVSCPKSEVRAKCKFSILNAKGEETKAMESQRAYRFVQGKDWGFKKFIRRDFLLDEANGLLPDDKLTLFCEVSVVQDSVNISGQNTMNMVKVPECRLADELGGLWENSRFTDCCLCVAGQEFQAHKAILAARSPVFSAMFEHEMEESKKNRVEINDVEPEVFKEMMCFIYTGKAPNLDKMADDLLAAADKYALERLKVMCEDALCSNLSVENAAEILILADLHSADQLKTQAVDFINYHASDVLETSGWKSMVVSHPHLVAEAYRSLASAQCPFLGPPRKRLKQS [F102C], the “effect of a mutation on the interaction” value is “with no effect”.
